Reference: article PMC6384913, “Exploring the suitability of RanBP2-type Zinc Fingers for RNA-binding protein design”

T1: (ABI3-5Sup-ZF)x2 (Arabidopsis thaliana, UniProt F4JCU0 379-406)
T1 chain: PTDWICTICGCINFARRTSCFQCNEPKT

T2: (FUS-ZF)x2 (Xenopus laevis, UniProt Q7ZXQ2 435-467)
T2 chain: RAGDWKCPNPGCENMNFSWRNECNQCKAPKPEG

T3: (hRBM10-ZF)x2 (Homo sapiens, UniProt P98175 212-243)
T3 chain: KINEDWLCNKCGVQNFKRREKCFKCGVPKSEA

T4: (ZRANB1-B-ZF)x2 (Danio rerio, UniProt A0JMQ9 152-182)
T4 chain: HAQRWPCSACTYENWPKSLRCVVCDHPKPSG

T5: (mRBM10-ZF N4D)x2 (Mus musculus, UniProt Q99KG3-2 135-166+=GSGSG+135-166, V161M;internal_change)
T5 sequence: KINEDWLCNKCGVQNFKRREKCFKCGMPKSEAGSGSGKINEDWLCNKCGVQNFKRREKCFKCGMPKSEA


Experiments:
(ABI3-5Sup-ZF)x2 [1] = biological target: T1, (ABI3-5Sup-ZF)x2; assay: ITC; ITC: 50 mM Tris pH 7.5, 150 mM NaCl, 1 mM DTT, 0.1 mM ZnCl2, 25 °C; BLI: 50 mM Tris pH 7.5, 150 mM NaCl, 1 mM DTT, 0.1% BSA, 0.02% Tween, 30 °C; details: protein: recombinant; tags: GST cleaved (HRV-3C)
(ABI3-5Sup-ZF)x2 [2] = biological target: T1, (ABI3-5Sup-ZF)x2; assay: BLI; ITC: 50 mM Tris pH 7.5, 150 mM NaCl, 1 mM DTT, 0.1 mM ZnCl2, 25 °C; BLI: 50 mM Tris pH 7.5, 150 mM NaCl, 1 mM DTT, 0.1% BSA, 0.02% Tween, 30 °C; details: protein: recombinant; tags: GST cleaved (HRV-3C); label: 5' biotin
(EWS-ZF)x2 [3] = biological target: T6, (EWS-ZF)x2 (Homo sapiens, UniProt Q01844-5 523-555); assay: as above; details: protein: recombinant; tags: GST cleaved (HRV-3C); label: 5' biotin
T6 sequence (Q01844 518-550): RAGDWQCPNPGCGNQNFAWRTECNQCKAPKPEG

(FUS-ZF)x2 [4] = biological target: T2, (FUS-ZF)x2; assay: as above; details: protein: recombinant; tags: GST cleaved (HRV-3C); label: 5' biotin
(hRBM10-ZF)x2 = biological target: T3, (hRBM10-ZF)x2; assay: as above; details: protein: recombinant; tags: GST cleaved (HRV-3C); label: 5' biotin
(EWS-ZF)x2 [5] = biological target: T6, (EWS-ZF)x2; assay: ITC; ITC: 50 mM Tris pH 7.5, 150 mM NaCl, 1 mM DTT, 0.1 mM ZnCl2, 25 °C; BLI: 50 mM Tris pH 7.5, 150 mM NaCl, 1 mM DTT, 0.1% BSA, 0.02% Tween, 30 °C; details: protein: recombinant; tags: GST cleaved (HRV-3C)
(ZRANB1-B-ZF)x2 = biological target: T4, (ZRANB1-B-ZF)x2; assay: as above; details: protein: recombinant; tags: GST cleaved (HRV-3C)
(FUS-ZF)x2 [6] = biological target: T2, (FUS-ZF)x2; assay: as above; details: protein: recombinant; tags: GST cleaved (HRV-3C)
(mRBM10-ZF N4D)x2 = biological target: T5, (mRBM10-ZF N4D)x2; assay: BLI; ITC: 50 mM Tris pH 7.5, 150 mM NaCl, 1 mM DTT, 0.1 mM ZnCl2, 25 °C; BLI: 50 mM Tris pH 7.5, 150 mM NaCl, 1 mM DTT, 0.1% BSA, 0.02% Tween, 30 °C; details: protein: recombinant; tags: GST cleaved (HRV-3C); label: 5' biotin

Binder	binding result ((ABI3-5Sup-ZF)x2 [2])	binding result ((EWS-ZF)x2 [3])	binding result ((FUS-ZF)x2 [4])	binding result ((hRBM10-ZF)x2)	Kd ((hRBM10-ZF)x2) [nM]	Kd ((ABI3-5Sup-ZF)x2 [2]) [nM]	further results
AAAGGAGGAAAA (ssRNA) [(GGA)x2]	–	–	–	–	–	–	Kd ((ABI3-5Sup-ZF)x2 [1]): 1000 ± 100 nM
AAAGAUGAUAAA (ssRNA) [(GAU)x2 biotin]	no binding	no binding	no binding	no binding	–	–	–
AAAGGCGGCAAA (ssRNA) [(GGC)x2 biotin]	–	no binding	no binding	–	2600 ± 30	–	–
AAAGGAGGAAAA (ssRNA) [(GGA)x2 biotin]	–	no binding	no binding	–	1400 ± 10	2600 ± 1000	–
AAAAGUAGUAAA (ssRNA) [(AGU)x2 biotin]	no binding	no binding	no binding	no binding	–	–	–
AAAGGUGGUAAA (ssRNA) [(GGU)x2]	–	–	–	–	–	–	Kd ((ABI3-5Sup-ZF)x2 [1]): 700 ± 100 nM; Kd ((EWS-ZF)x2 [5]): 200 ± 30 nM; binding result ((ZRANB1-B-ZF)x2): no binding; Kd ((FUS-ZF)x2 [6]): 200 ± 20 nM
AAAAAAAAAAAA (ssRNA) [polyA control 12-mer]	–	–	–	–	–	–	binding result ((ZRANB1-B-ZF)x2): no binding
AAAGGUGGUAAA (ssRNA) [(GGU)x2 biotin]	–	–	–	–	500 ± 10	1000 ± 10	Kd ((EWS-ZF)x2 [3]): 800 ± 60 nM; Kd ((FUS-ZF)x2 [4]): 800 ± 70 nM
AAAAAAAAAAAA (ssRNA) [(AAA)x2 biotin]	no binding	no binding	no binding	no binding	–	–	–
AAAGGGGGGAAA (ssRNA) [(GGG)x2 biotin]	–	–	–	–	300 ± 30	3000 ± 500	Kd ((EWS-ZF)x2 [3]): 1100 ± 10 nM; Kd ((mRBM10-ZF N4D)x2): 400 ± 30 nM; Kd ((FUS-ZF)x2 [4]): 1100 ± 300 nM
